T1: mouse ASGR1 extracellular domain (mASGR1 ECD) (mouse, biotinylated (His-Avi tag))
T1 construct: His-Avi tag at the C-terminus, biotinylated; also called murine ASGR1; mouse ASGR1 (Q61-N284)
T1 chain: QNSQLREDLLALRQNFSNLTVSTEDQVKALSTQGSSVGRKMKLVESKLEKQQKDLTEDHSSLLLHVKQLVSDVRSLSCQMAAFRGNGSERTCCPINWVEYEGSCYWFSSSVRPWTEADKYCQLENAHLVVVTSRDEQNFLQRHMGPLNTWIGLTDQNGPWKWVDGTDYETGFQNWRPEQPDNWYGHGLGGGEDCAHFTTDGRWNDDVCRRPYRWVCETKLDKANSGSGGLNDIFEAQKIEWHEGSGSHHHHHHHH

T2: human ASGR1 extracellular domain (hASGR1 ECD) (human, UniProt P07306 62-291, biotinylated (His-Avi tag))
T2 construct: His-Avi tag at the N-terminus, biotinylated for BLI; also called human ASGR1 ECD
T2 sequence: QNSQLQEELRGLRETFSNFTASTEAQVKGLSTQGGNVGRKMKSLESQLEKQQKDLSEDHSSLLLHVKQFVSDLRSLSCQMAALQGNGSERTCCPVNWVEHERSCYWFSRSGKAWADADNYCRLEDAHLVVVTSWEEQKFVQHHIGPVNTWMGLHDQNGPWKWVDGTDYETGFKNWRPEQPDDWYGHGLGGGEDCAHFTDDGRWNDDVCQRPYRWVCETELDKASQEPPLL

T3: human ASGR2 extracellular domain (hASGR2 ECD) (human, UniProt P07307 86-311, biotinylated (His/Avi tag))
T3 construct: Cloned with a His/Avi tag
T3 sequence: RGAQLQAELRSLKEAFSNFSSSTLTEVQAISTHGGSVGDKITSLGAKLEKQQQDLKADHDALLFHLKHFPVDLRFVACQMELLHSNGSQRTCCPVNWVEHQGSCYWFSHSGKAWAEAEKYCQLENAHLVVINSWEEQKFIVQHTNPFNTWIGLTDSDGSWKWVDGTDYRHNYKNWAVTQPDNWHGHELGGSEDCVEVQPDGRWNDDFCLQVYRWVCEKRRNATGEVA


Key:
[1] = biological target: T1, mouse ASGR1 extracellular domain …; test: BLI (Octet), Fab on biotinylated ASGR1 ECD, curve model fitting; Kd only in FIG. 9A
Procedure: (§1) Affinity measurement: Binding kinetics of the RSPO-derived proteins to LGRS, RNF43, or ZNRF3, and binding of the anti-ASGR Fabs to human and/or mouse ASGR1 were determined by bio-layer interferometry (BLI) using Octet Red 96 (PALL ForteBio, Fremont, CA) instruments at 30° C., 1000 rpm with either streptavidin (SA) or anti-hIgG Fc capture (AHC) biosensors. […] Following capture of ECDs of RNF43, ZNRF3 or LGRS, the biosensors were dipped into wells containing the relevant test molecules at 7 different concentrations in running buffer plus a well with only running buffer as a reference channel. KD was determined by steady-state analysis based on the average responses between 140 to 145 seconds of association phase, for binding to LGRS, RNF43, and ZNRF3. For the binding to ASGR, KD was determined by curve model fitting using the Octet® Red data analysis software (Fortebio)

[2] = biological target: T2, human ASGR1 extracellular domain …; test: as above
Procedure: as §1

[3] = biological target: T2, human ASGR1 extracellular domain …; test: BLI, Fab on hASGR1
[4] = biological target: T3, human ASGR2 extracellular domain …; test: BLI, Fab on hASGR2

Binder | binding result [3] | binding result [4] | further results
anti-ASGR1 Fab (Fab, V domains shown, Made with a (His)6 tag at the C-terminus of the human IgG1 CH1 domain after a 5-mer linker (GSGSG); also called αASGR1 antibody (e.g., RO-01) expressed as a Fab) VH: not shown VL: DIELTQDPAVSVALGQTVRITCQGDSLRSYYASWYQQKPGQAPVLVIYGKNNRPSGIPDRFSGSSSGNTASLTITGAQAEDEADYYCNSLERIGYLSYVFGGGTKLTVLG |  |  | binding result [1]: binds; binding result [2]: binds
LP1-8M24 Fab (Fab, V domains shown, Tested as Fab, from hybridoma development) VH: QVQLQQSGAELARPGASVKLSCKASGYTFTNYGINWVKQRTGQGLEWIGEIFPRSDNTFYNEKFKGKATLTADKSSTTAYMELRSLTSEDSAVYFCARKGRDYGTSHYFDYWGQGTTLTVSS VL: DIQMTQSPASLSVSVGETVTITCRISENIYSNLAWYQQKQGKSPHLLVYAAINLADGVPSRFSGSGSGTQFSLKINSLQSEDFGSYYCQHFWGTPFTFGSGTKLEIK | binds |  | 
LP1-2I13 Fab (Fab, V domains shown, Tested as Fab, from hybridoma development) VH: EVQLVESGGGLVKPGGSRKLSCAASGFTFSDYGMHWVRQAPEKGLEWVAYISSGSSTIYYADTVKGRFTISRDNAKNTLFLQMTSLRSEDTAMYYCSRKGGFGDYEKSYAMDYWGQGTSVTVSS VL: DIQMTQSPASLSASVGETVTITCRASENIYSYLVWYQQKQGKSPQLLVYNAKTLAEGVPSRFSGSGSGTQFSLKINSLQPEDFGSYYCQHHYGTWTFGGGIKLEIK | binds |  | 
Abv-3D11 Fab (Fab, V domains shown, Tested as Fab, from hybridoma development) VH: EVQLVESGGGLVQPKGSLKLSCAASGFSFNTYAMNWVRQAPGKGLEWVARIRSKSNNYATYYADSVKDRFTISRDDSESMLYLQMNNLKTEDTAMYYCVRPRYDYWYFDVWGTGTTVTVSS VL: not shown |  | binds | 
Abv-10B8 Fab (Fab, V domains shown, Tested as Fab, from hybridoma development) VH: DVKLVESGEGLVKPGGSLKLSCAASGFTFSSYAMSWVRQTPEKRLEWVAYISSGGDYIYYVDTVKGRFTISRDNARNTLYLQMSSLKSEDTAVYYCTREGTGGMDYWGQGTSVTVSS VL: not shown |  | binds | 

From patent US20210380678A1 (SURROZEN OPERATING, published 2021)
